Assay results as given in PMC10085699.
Residue numbers refer to the chain shown, from its start. Read-outs that look alike come from different tables or passages of the source.

Experiments:
SETX-HD-WT [1] = target: T1, SETX-HD-WT (Homo sapiens, UniProt Q7Z333 1674-2677); assay: BLI
T1 sequence: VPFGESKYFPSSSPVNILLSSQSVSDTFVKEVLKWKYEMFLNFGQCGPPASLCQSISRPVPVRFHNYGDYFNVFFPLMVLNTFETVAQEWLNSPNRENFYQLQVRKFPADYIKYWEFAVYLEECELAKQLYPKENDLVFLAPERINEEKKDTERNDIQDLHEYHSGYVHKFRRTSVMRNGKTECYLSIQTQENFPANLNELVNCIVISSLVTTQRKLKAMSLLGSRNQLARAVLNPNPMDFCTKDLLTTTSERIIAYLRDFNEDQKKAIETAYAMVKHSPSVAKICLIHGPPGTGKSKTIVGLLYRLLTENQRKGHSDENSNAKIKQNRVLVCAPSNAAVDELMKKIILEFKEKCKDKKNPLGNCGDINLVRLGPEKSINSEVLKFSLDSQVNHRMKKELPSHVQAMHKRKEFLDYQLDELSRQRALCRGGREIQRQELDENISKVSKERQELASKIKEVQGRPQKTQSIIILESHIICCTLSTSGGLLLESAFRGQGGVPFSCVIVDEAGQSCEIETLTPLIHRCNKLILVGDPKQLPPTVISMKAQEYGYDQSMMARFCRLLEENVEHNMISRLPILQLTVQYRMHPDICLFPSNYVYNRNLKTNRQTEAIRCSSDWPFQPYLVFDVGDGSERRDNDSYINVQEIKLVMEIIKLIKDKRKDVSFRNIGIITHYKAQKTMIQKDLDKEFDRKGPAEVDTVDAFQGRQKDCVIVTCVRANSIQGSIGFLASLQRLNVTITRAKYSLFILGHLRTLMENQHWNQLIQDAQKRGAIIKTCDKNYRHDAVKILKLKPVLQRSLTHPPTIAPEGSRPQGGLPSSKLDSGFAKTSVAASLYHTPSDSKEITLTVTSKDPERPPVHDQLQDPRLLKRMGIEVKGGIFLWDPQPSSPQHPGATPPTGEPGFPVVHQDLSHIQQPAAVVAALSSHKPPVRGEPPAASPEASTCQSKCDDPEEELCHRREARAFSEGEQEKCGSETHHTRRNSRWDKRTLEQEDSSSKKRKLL

Sen1-HD [2] = target: T2, Sen1-HD (UniProt Q00416 1095-1904); assay: BLI
T2 sequence: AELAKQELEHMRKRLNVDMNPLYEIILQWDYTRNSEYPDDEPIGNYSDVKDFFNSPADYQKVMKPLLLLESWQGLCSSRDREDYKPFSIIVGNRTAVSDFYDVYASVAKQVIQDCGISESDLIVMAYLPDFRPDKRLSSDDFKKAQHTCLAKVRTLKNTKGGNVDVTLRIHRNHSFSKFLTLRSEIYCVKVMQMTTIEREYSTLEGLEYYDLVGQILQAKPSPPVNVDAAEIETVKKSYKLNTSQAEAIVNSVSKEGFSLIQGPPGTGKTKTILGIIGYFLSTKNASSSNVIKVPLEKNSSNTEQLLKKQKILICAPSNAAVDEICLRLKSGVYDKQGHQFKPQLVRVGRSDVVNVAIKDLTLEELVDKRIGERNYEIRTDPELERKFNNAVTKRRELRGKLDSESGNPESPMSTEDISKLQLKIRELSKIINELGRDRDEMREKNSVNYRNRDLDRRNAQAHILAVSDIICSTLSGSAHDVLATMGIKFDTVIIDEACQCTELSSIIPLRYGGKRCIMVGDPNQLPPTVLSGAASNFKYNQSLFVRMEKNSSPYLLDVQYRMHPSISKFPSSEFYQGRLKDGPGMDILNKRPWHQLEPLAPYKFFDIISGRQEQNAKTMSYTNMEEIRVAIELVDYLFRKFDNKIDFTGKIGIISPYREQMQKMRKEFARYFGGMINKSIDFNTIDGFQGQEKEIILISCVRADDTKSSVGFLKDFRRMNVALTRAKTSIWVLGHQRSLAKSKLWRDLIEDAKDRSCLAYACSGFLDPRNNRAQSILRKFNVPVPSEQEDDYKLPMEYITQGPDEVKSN

SETX-HD-WT [3] = target: T1, SETX-HD-WT; assay: EMSA
SETX-HD-WT [4] = target: T1, SETX-HD-WT; assay: EMSA; remark: listed apart in the source
SETX-HD-WT [5] = target: T1, SETX-HD-WT; assay: EMSA; remark: listed apart in the source
Sen1-HD [6] = target: T2, Sen1-HD; assay: BLI; remark: listed apart in the source
SETX-HD-V1884T = target: T3, SETX-HD-V1884T (Homo sapiens, UniProt Q7Z333 1674-2677, V1884T); assay: BLI
T3 sequence: T1 sequence with V211T

SETX-HD-WT [7] = target: T1, SETX-HD-WT; assay: BLI; remark: listed apart in the source
SETX-HD-WT [8] = target: T1, SETX-HD-WT; assay: EMSA; remark: listed apart in the source

In the case of TTGTCTTCTCATAAATTTAATCCCCGTACGCTTATACTCCT (ssDNA) [ssDNA pRMS739 (41 nt)], the Kd (SETX-HD-WT [1]) is reported as 2.8 nM and the Kd (Sen1-HD [2]) is reported as 3.4 nM.

B1: 5'-oh RNA:DNA hybrid (pRMS678/pRMS690) (DNA:RNA)
RNA: UUGUCUUCUCAUAAAUUUAAUCCCCGUACGCUUAUACUCCUUUAACUACCCAGUCUUCCCG
DNA: CGGGAAGACTGGGTAGTTAA
B1: binds (SETX-HD-WT [3]).

B2: blunt RNA:DNA hybrid (pRMS678/pRMS743) (DNA:RNA)
RNA: B1 RNA
DNA: CGGGAAGACTGGGTAGTTAAAGGAGTATAAGCGTACGGGGATTAAATTTATGAGAAGACAA
B2: no binding (SETX-HD-WT [4]).

B3: 3'-oh RNA:DNA hybrid (pRMS678/pRMS689) (DNA:RNA)
RNA: B1 RNA
DNA: TTAAATTTATGAGAAGACAA
B3: binds (SETX-HD-WT [5]).

In the case of UUGUCUUCUCAUAAAUUUAAUCCCCGUACGCUUAUACUCCU (ssRNA) [ssRNA pRMS740 (41 nt)], the Kd (Sen1-HD [6]) is reported as 3.7 nM, the binding result (SETX-HD-V1884T) is reported as “binds” and the Kd (SETX-HD-WT [7]) is reported as 4.6 nM.

B4: 5'-oh R-loop (pRMS217/219/222) (mixed)
DNA 1: GACGCTGCCGAATTCTACCAGTGCCTTGCTAGGACATCTTTGCCCACCTGCAGGTTCACCC
DNA 2: GGGTGAACCTGCAGGTGGGCGGCTGCTCATCGTAGGTTAGTTGGTAGAATTCGGCAGCGTC
RNA: UAAGAGCAAGAUGUUCUAUAAAAGAUGUCCUAGCAAGGCAC
B4: binds (SETX-HD-WT [8]).

B5: R-loop, no overhang (pRMS217/219/223) (mixed)
DNA 1: B4 DNA 1
DNA 2: B4 DNA 2
RNA: AAAGAUGUCCUAGCAAGGCAC
B5: binds (SETX-HD-WT [8]).

B6: 3'-oh R-loop (pRMS217/219/626) (mixed)
DNA 1: B4 DNA 1
DNA 2: B4 DNA 2
RNA: AAAGAUGUCCUAGCAAGGCACUAAGUCCUAGAUGUUCUAUA
B6: binds (SETX-HD-WT [8]).
